Publication PMC12421828

Biological target: FLAG-14-3-3ε (pCAGG-FLAG 14-3-3ε of Figure 5, isoform not told)
Test: co-immunoprecipitation (anti-FLAG IP), immunoblot band quantification
Conditions: BSR cells co-transfected; immunoprecipitation at 24 h post-transfection; parent: est. 0.76; read off a plot

| Substance | response (Elution / Input) |
| --- | --- |
| HA2B* expressed from pCAGG-HA2B* S19A | 1.1 |
| HA2B* expressed from pCAGG-HA2B* S17A | 1.5 |
| HA2B* expressed from pCAGG-HA2B* S19D | 1.9 |
| HA2B* expressed from pCAGG-HA2B* S17D | 1.4 |
| HA2B* expressed from pCAGG-HA2B* S17E | 1.7 |
| HA2B* expressed from pCAGG-HA2B* S19E | 0.76 |
